Measurements taken from article doi:10.1101/2021.09.02.458738.

Biological target: ArPEC25-mCherry (Ascochyta rabiei)
Test: FRET or BRET

Substance: CaβLIM1a-GFP (natural protein)
- FRET efficiency: 2.75
